Reference: publication PMC2173958

Assays:
[1] = biological target: GST fusion 2b of Sfi1p (246–281) (S. cerevisiae) (UniProt Q12369); test: pull-down
[2] = biological target: GST fusion 2c of Sfi1p (279–386) (S. cerevisiae) (UniProt Q12369); test: pull-down
[3] = biological target: GST fusion 3a of Sfi1p (451–474) (S. cerevisiae) (UniProt Q12369); test: pull-down
[4] = biological target: GST fusion 4a of Sfi1p (643–677) (S. cerevisiae) (UniProt Q12369); test: pull-down
[5] = biological target: GST fusion 4b of Sfi1p (676–710) (S. cerevisiae) (UniProt Q12369); test: pull-down
[6] = biological target: Sfi1p-prA (S. cerevisiae) (UniProt Q12369); test: affinity purification with mass spectrometry

Sequence of UniProt Q12369 (Q12369 whole entry, the tested form may be a part): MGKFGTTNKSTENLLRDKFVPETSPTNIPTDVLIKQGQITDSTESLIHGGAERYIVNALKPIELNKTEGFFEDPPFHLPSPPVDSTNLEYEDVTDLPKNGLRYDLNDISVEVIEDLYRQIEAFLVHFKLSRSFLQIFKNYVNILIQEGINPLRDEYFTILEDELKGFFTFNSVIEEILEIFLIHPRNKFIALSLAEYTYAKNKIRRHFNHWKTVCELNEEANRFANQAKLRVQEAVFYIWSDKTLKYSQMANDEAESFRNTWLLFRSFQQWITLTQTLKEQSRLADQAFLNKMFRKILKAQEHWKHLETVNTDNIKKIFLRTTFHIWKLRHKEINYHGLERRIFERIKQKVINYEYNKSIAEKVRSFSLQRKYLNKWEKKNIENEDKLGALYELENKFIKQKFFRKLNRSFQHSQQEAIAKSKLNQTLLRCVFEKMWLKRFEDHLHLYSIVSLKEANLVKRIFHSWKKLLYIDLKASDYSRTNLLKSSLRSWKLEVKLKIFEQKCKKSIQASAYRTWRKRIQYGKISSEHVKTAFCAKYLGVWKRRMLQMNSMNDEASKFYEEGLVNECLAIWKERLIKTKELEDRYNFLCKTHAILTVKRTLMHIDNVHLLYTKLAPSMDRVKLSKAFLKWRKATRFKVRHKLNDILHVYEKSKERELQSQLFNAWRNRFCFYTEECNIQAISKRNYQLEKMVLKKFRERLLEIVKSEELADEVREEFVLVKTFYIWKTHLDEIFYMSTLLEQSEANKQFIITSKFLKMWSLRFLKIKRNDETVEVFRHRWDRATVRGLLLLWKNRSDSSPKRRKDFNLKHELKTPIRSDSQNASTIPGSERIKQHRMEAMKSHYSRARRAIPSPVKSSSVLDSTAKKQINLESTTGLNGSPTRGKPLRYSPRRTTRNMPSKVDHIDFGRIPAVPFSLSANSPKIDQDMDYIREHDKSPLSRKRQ

Molecule | stoichiometry N [1] | molar ratio of Cdc31p to fusion (gel scan, not at saturation) [2] | stoichiometry N [3] | stoichiometry N [4] | stoichiometry N [5] | molar ratio of Cdc31p to Sfi1p-prA (inspection of Coomassie-stained bands) [6]
recombinant Cdc31p (from UniProt P06704 2-161) (natural protein) | < 1.1 | 1.1 | < 1.1 | < 1.1 | < 1.1 | 
Cdc31p (natural protein) MSKNRSSLQSGPLNSELLEEQKQEIYEAFSLFDMNNDGFLDYHELKVAMKALGFELPKREILDLIDEYDSEGRHLMKYDDFYIVMGEKILKRDPLDEIKRAFQLFDDDHTGKISIKNLRRVAKELGETLTDEELRAMIEEFDLDGDGEINENEFIAICTDS |  |  |  |  |  | > 1
